Results as given in US20230090014A1 (NANJING SANHOME PHARMACEUTICAL, published 2023).
Substitutions are numbered along the chain they refer to. Like-named read-outs stand apart in the source and are kept apart here. Values belong to the binder of their own block, whether it stands above or below them.

Assays:
[1] = target: T1, CD47 on the surface of CHO-K1-E5 cells (human, UniProt Q08722 19-323); assay: FACS on CHO-K1-hCD47 cells
T1 construct: Full length CD47 expressed from pTargeT-CD47 in CHO-K1 cells; also called CD47 on cell surface; CHO-K1-hCD47

[2] = target: T1, CD47 on the surface of CHO-K1-E5 cells; assay: FACS blocking assay on CHO-K1-hCD47 cells; blocked ligand SIRPα-biotin, PE-SA
[3] = target: T2, hPD-L1 on the surface of CHO-K1-hPD-L1 and Raji-hPD-L1 cells (human, UniProt Q9NZQ7 19-238); assay: FACS on CHO-K1-hPD-L1 cells, PE anti-human IgG
T2 construct: also called CHO-K1-PD-L1; human PD-L1 on cell surface
T2 sequence (Q9NZQ7 19-238): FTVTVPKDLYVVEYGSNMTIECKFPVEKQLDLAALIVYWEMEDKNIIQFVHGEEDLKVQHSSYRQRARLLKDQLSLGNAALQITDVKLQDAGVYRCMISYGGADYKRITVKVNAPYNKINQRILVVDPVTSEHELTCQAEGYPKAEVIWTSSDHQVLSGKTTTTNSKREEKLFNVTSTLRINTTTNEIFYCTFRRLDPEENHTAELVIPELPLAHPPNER

[4] = target: T1, CD47 on the surface of CHO-K1-E5 cells; assay: competition FACS on CHO-K1-hCD47 cells, SIRPα-biotin as competitor
[5] = target: T3, Human CD47-His protein (human, UniProt Q08722 19-136); assay: ELISA on coated human CD47-His, HRP anti-human IgG, OD450
[6] = target: PD-L1-mFc (UniProt Q9NZQ7 19-238, limits assumed); assay: competition ELISA on coated CD80-hFc; antibody mixed with PD-L1-mFc, bound PD-L1-mFc detected with anti-mouse IgG HRP, OD450; set-up: unit not given here
Chain of PD-L1-mFc (Q9NZQ7 19-238 limits assumed): as the sequence (Q9NZQ7 19-238) above

[7] = target: Human PD-L1-hFC protein (human, UniProt Q9NZQ7 19-238, limits assumed); assay: competition ELISA on coated PD-L1-hFc; blocked ligand PD-1-mFc (1 µg/mL), anti-mouse IgG HRP, OD450
Chain of Human PD-L1-hFC protein (Q9NZQ7 19-238 limits assumed): as the sequence (Q9NZQ7 19-238) above

[8] = target: T1, CD47 on the surface of CHO-K1-E5 cells; assay: FACS on CHO-K1-hCD47 cells, PE anti-human IgG
[9] = target: T3, Human CD47-His protein; assay: competition ELISA: CD47-His coated, SIRPα-biotin as competitor
[10] = target: Human PD-L1-His protein (human, UniProt Q9NZQ7 19-238, limits assumed); assay: ELISA on coated human PD-L1-His, HRP anti-human IgG, OD450
Chain of Human PD-L1-His protein (Q9NZQ7 19-238 limits assumed): as the sequence (Q9NZQ7 19-238) above

[11] = target: T3, Human CD47-His protein; assay: ELISA, human CD47-His coated
[12] = target: T2, hPD-L1 on the surface of CHO-K1-hPD-L1 …; assay: FACS blocking assay on CHO-K1-hPD-L1 cells; blocked ligand PD-1-mFc (1 µg/mL), PE anti-mouse IgG
[13] = target: T4, Cynomolgus CD47-His (cynomolgus, UniProt A0A2K5X523 19-139); assay: ELISA on coated cynomolgus CD47-His, anti-human IgG HRP, OD450
T4 construct: Bought protein; also called monkey CD47

[14] = target: T1, CD47 on the surface of CHO-K1-E5 cells; assay: cell based ELISA on fixed CHO-K1-E5 cells, anti-human IgG HRP, OD450
[15] = target: T3, Human CD47-His protein; assay: ELISA on coated human CD47-His, anti-human IgG HRP, OD450
[16] = target: T5, CD47(19-136)-hFc (human, biotin-labelled in the Octet assay of Example 8 (sites not given)); assay: BLI (Fortebio Octet RED96), biotinylated CD47-hFc on SA sensor, antibody in solution
T5 construct: tied by name; also called CD47-hFc; CD47-hFc-Biotin
T5 sequence (chain, as listed by the source limits assumed): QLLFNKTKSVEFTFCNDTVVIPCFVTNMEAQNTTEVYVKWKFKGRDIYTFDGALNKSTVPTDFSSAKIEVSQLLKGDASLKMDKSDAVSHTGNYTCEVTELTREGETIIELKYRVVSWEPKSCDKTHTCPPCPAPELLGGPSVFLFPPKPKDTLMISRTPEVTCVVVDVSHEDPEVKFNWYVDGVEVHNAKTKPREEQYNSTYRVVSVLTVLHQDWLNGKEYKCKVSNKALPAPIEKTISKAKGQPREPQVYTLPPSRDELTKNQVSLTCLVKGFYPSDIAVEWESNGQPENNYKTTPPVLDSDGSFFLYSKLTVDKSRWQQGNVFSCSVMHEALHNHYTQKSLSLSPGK

[17] = target: T1, CD47 on the surface of CHO-K1-E5 cells; assay: FACS blocking assay on CHO-K1-E5 cells; blocked ligand SIRPα-Biotin, PE streptavidin
[18] = target: T3, Human CD47-His protein; assay: ELISA of hybridoma supernatant, binding activity to CD47
[19] = target: T6, hCD47 on the surface of Raji-hPD-L1 cells (human, UniProt Q08722 19-323); assay: FACS on Raji-hPD-L1 cells (carry both hPD-L1 and hCD47), PE anti-human IgG Fc
T6 construct: whole, on cells

[20] = target: T3, Human CD47-His protein; assay: competition ELISA on coated CD47-His; blocked ligand SIRPα-biotin (2 µg/mL), SA-HRP, OD450
[21] = target: T6, hCD47 on the surface of Raji-hPD-L1 …; assay: FACS on Raji-hPD-L1 cells (carry both hPD-L1 and hCD47), PE anti-human IgG Fc; remark: listed apart in the source

- fold decrease of Emax against Hu34-39-PE [1]: ~2 times
- fold increase of EC50 against Hu34-39-PE [1]: ~4 times
- IC50 (read off the curve) [2]: ~8 nM
- EC50 (read off the curve) [3]: ~2 nM
- fold increase of IC50 against Hu34-39-PE [4]: 3 times
- EC50 (read off the curve) [5]: ~2000 nM
- IC50 (read off the curve) [6]: ~10
- IC50 (read off the curve) [7]: ~1000 nM
- EC50 (read off the curve) [8]: ~10 nM
- fold increase of IC50 against Hu34-39-PE [9]: ~40 times
- EC50 (read off the curve) [10]: ~200 nM
- fold increase of binding EC50 against Hu34-39-PE [11]: 40 fold
- IC50 (read off the curve) [12]: ~3 nM
B1: ScFab (HuPL7-21Ks/Hu34-39Hs) (bispecific antibody)
chain 1: not shown
chain 2: EIVLTQSPGTLSLSPGERATLSCRASSSVSSSYLNWYQQKSGASPKLWIYSTSNLASGVPGRFSGSGSGTSYSLTISSVEAEDAATYYCQQYSGYPLTFGAGTKLEVKRTVAAPSVFIFPPSDEQLKSGTASVVCLLNNFYPREAKVQWKVDNALQSGNSQESVTEQDSKDSTYSLSSTLTLSKADYEKHKVYACEVTHQGLSSPVTKSFNRGECGGGGSGGGGSGGGGSGGGGSGGGGSGGGGSQVQLQESGPGLVKPSQTLSLTCKASGYTFTNYWITWVKQRPGQGLEWIGDITPGRGETNYNQKFKGRVTLTVDISASTAYMELSSLRSEDTAVYYCSRWGLRRGDYWGQGTSVTVSSASTKGPSVFPLAPCSRSTSESTAALGCLVKDYFPEPVTVSWNSGALTSGVHTFPAVLQSSGLYSLSSVVTVPSSSLGTKTYTCNVDHKPSNTKVDKRVESKYGPPCPPCPAPEFEGGPSVFLFPPKPKDTLMISRTPEVTCVVVDVSQEDPEVQFNWYVDGVEVHNAKTKPREEQFNSTYRVVSVLTVLHQDWLNGKEYKCKVSNKGLPSSIEKTISKAKGQPREPQVCTLPPSQEEMTKNQVSLSCAVKGFYPSDIAVEWESNGQPENNYKTTPPVLDSDGSFFLVSRLTVDKSRWQEGNVFSCSVMHEALHNHYTQKSLSLSLGK
notes: also called BiAb; Bi Ab

- fold decrease of Emax against Hu34-39-PE [1]: ~2 times
- fold increase of EC50 against Hu34-39-PE [1]: ~4 times
- IC50 (read off the curve) [2]: ~5 nM
- EC50 (read off the curve) [3]: ~2 nM
- fold increase of IC50 against Hu34-39-PE [4]: 3 times
- EC50 (read off the curve) [5]: ~2000 nM
- EC50 (read off the curve) [8]: ~10 nM
- fold increase of IC50 against Hu34-39-PE [9]: ~40 times
- fold increase of binding EC50 against Hu34-39-PE [11]: ~40 times
- IC50 (read off the curve) [12]: ~5 nM
B2: ScFab (HuPL16-42Ks/Hu34-39Hs) (bispecific antibody)
chain 1: not shown
chain 2: B1 chain 2

- EC50 (read off the curve) [13]: ~0.1 nM
- EC50 (read off the curve) [14]: ~0.1 nM
- EC50 (read off the curve) [15]: ~0.08 nM
- Kd [16]: 0.0946 nM
- koff [16]: 0.000168 s⁻¹
- kon [16]: 1.78e+06 M⁻¹ s⁻¹
- IC50 (read off the curve) [17]: ~5 nM
B3: Hu58A-14-PE (antibody, IgG4, V domains shown)
VH: EVQLLESGGGLVQPGGSLRLSCAASGFIFSRFGMAWVRQTPDKRLEWVATISSGGSYTYYPDSVKGRLTISRDNAKTTLYLQMRSLKSEDTAMYYCARQGLLDYLYALDYWGQGTAVTVSS
VL: DIQMTQSPSSVSASIGDRVTITCKASQDINSFLAWFQQKPGKSPRPLIYRAYRLVDGVPSRFSGVGSGQDYSLTISSLDYEDLGIYYCQQYVEFPPTFGAGTMLELK
notes: also called humanized anti-CD47 antibody Hu58A-14-PE

- binding result [18]: binds
B4: SHC025-58 (antibody, IgG2b, V domains shown)
VH: B3 VH with L5V, G10D, Q13E, R19K
VL: B3 VL with Q3K, T5I, V11M, S12Y, S14G, I15L, D17E, I21F, T22N, A34C
notes: tested as culture supernatant

- EC50 (read off the curve) [13]: ~0.1 nM
- EC50 (read off the curve) [14]: ~0.1 nM
- EC50 (read off the curve) [15]: ~0.08 nM
- Kd [16]: 0.101 nM
- koff [16]: 0.000485 s⁻¹
- kon [16]: 4.8e+06 M⁻¹ s⁻¹
- IC50 (read off the curve) [17]: ~1 nM
B5: AB6.12-IgG4P (antibody, V domains shown)
VH: QMQLVQSGAEVKKTGSSVKVSCKASGFNIKDYYLHWVRQAPGQALEWMGWIDPDQGDTEYAQKFQDRVTITRDRSMSTAYMELSSLRSEDTAMYYCNAAYGSSSYPMDYWGQGTTVTVSS
VL: NIQMTQSPSAMSASVGDRVTITCKASQDIHRYLSWFQQKPGKVPKHLIYRANRLVSGVPSRFSGSGSGTEFTLTISSLQPEDFATYYCLQYDEFPYTFGGGTKVEIKR
notes: Anti-CD47 control antibody from WO2013/119714; also called AB06.12-4P; AB06.12-P

- EC50 (read off the curve) [13]: ~0.1 nM
- EC50 (read off the curve) [14]: ~0.1 nM
- EC50 (read off the curve) [15]: ~0.1 nM
- Kd [16]: 0.0587 nM
- koff [16]: 6.13e-05 s⁻¹
- kon [16]: 1.04e+06 M⁻¹ s⁻¹
- IC50 (read off the curve) [17]: ~1 nM
B6: Hu26T-31-PE (antibody, IgG4, V domains shown)
VH: QVQLVQSGAEVKKPGASVKVSCKASGYTFTDYYMNWVRQAPGQGLEWIGRIYPGSGLTYYNAKFKGRATVTADKSTSTVYMELSSLRSEDTAVYYCARTSYGSSFPHVWGQGTTVTVSS
VL: DIQMTQSPSSLSASVGDRVTITCKSSQSLLNVNDQKNYLAWYQQKPGKAPKLLIYFASTRESGVPSRFSGSGSGTDFTLTISSLQPEDFATYYCQQHYSTPLTFGQGTKLEIK
notes: also called humanized anti-CD47 antibody Hu26T-31-PE

- EC50 (read off the curve) [19]: ~0.1 nM
- IC50 (read off the curve) [2]: ~2 nM
- EC50 (read off the curve) [13]: ~0.1 nM
- EC50 (read off the curve) [14]: ~0.1 nM
- EC50 (read off the curve) [15]: ~0.08 nM
- Kd [16]: 0.113 nM
- koff [16]: 0.000758 s⁻¹
- kon [16]: 6.69e+06 M⁻¹ s⁻¹
- EC50 (read off the curve) [5]: ~60 nM
- IC50 (read off the curve) [20]: ~100 nM
- EC50 (read off the curve) [21]: ~0.2 nM
- EC50 (read off the curve) [8]: ~1 nM
- IC50 (read off the curve) [17]: ~1 nM
B7: Hu34-39-PE (antibody, IgG4, V domains shown)
VH: QVQLQESGPGLVKPSQTLSLTCKASGYTFTNYWITWVKQRPGQGLEWIGDITPGRGETNYNQKFKGRVTLTVDISASTAYMELSSLRSEDTAVYYCSRWGLRRGDYWGQGTSVTVSS
VL: EIVLTQSPGTLSLSPGERATLSCRASSSVSSSYLNWYQQKSGASPKLWIYSTSNLASGVPGRFSGSGSGTSYSLTISSVEAEDAATYYCQQYSGYPLTFGAGTKLEVK
notes: also called humanized anti-CD47 antibody Hu34-39-PE

- binding result [18]: binds
B8: SHC025-34 (antibody, IgG2c, V domains shown)
VH: QVQLQQPGAELVKPGASVKMSCKASGYTFTNYWITWVKQRPGQGLEWIGDITPGRGETNYNEKFKSKATLTVDTSSSTAYMQLTSLTSEDSAVYYCSRWGLRRGDYWGQGTSVTVSS
VL: B7 VL with I2N, G9A, T10I, L11M, L13A, R18K, A19V, L21M, S22T
notes: tested as culture supernatant

- binding result [18]: binds
B9: SHC025-26 (antibody, IgG1, V domains shown)
VH: QVQLKQSGAELVRPGASVKLSCKASGYIFTDYYMNWVKQRPGQGLEWIARIYPGSGLTYYNAKFKGKATVTAEKSSSTAYMQLSSLTSEDSAVYFCARCSYGSSFPHVWGTGTTVTVSS
VL: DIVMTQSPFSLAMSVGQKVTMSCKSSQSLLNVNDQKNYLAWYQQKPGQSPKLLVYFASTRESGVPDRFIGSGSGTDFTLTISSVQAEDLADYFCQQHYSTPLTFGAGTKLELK
notes: tested as culture supernatant
